According to paper PMC10786891, “Massively parallel profiling of RNA-targeting CRISPR-Cas13d”:
Residue numbers refer to the chain shown, from its start.

T1: EsCas13d, nuclease-dead (Eubacterium siraeum, UniProt B0MS50, R295A;H300A;R849A;H854A)
T1 sequence: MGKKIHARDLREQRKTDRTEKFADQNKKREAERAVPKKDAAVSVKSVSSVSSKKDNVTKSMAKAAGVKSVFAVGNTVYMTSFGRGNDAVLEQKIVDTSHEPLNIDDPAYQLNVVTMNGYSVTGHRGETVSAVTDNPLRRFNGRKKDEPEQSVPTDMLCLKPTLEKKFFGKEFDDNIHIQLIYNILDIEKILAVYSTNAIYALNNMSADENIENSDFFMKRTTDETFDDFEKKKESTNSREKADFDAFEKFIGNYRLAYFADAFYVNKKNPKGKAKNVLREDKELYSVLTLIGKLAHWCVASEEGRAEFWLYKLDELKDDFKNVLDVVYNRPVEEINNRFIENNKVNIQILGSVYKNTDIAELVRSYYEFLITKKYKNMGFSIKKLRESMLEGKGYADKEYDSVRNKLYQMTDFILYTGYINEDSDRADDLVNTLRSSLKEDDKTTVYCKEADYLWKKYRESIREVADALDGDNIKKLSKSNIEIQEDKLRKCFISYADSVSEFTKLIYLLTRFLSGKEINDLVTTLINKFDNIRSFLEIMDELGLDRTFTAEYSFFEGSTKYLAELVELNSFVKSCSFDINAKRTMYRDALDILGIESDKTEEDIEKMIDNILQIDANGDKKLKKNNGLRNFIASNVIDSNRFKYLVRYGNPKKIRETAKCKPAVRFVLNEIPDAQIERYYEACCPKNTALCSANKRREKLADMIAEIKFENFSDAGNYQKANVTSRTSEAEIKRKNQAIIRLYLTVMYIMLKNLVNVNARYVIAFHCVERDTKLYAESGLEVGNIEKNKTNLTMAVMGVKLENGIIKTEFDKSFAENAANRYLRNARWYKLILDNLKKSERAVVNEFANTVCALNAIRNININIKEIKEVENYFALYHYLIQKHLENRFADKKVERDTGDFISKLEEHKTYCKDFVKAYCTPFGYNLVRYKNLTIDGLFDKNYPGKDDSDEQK

B1: target 2 MT 5'PFS GCC 3'PFS UAA (mixed)
RNA 1: CACCCGUGCAAAAUUGCAGGGGUCUAAAACCUUCUCCAAAUUGUUUCAUCCU
RNA 2: GGGAAUGGAUCCACAUCUACGAAUUCGCCAGGAUGAAACAAUUUGGAGAAGUAAAGAUCGGAAGAGCACACGU
B2: target 2 MT 5'PFS GAC 3'PFS AAG (mixed)
RNA 1: B1 RNA 1
RNA 2: B1 RNA 2 with C28A, U52A, A54G
B3: target 2 MT 5'PFS GGU 3'PFS ACA (mixed)
RNA 1: B1 RNA 1
RNA 2: B1 RNA 2 with C28G, C29U, U52A, A53C
B4: target 2 MT 5'PFS AAA 3'PFS CAG (mixed)
RNA 1: B1 RNA 1
RNA 2: B1 RNA 2 with G27A, C28A, C29A, U52C, A54G
B5: target 2 MT 5'PFS AUG 3'PFS UUC (mixed)
RNA 1: B1 RNA 1
RNA 2: B1 RNA 2 with G27A, C28U, C29G, A53U, A54C
B6: target 2 MT 5'PFS AAU 3'PFS UAC (mixed)
RNA 1: B1 RNA 1
RNA 2: B1 RNA 2 with G27A, C28A, C29U, A54C
B7: target 2 MT 5'PFS UUU 3'PFS UGC (mixed)
RNA 1: B1 RNA 1
RNA 2: B1 RNA 2 with G27U, C28U, C29U, A53G, A54C
B8: target 2 MT 5'PFS GGU 3'PFS ACU (mixed)
RNA 1: B1 RNA 1
RNA 2: B1 RNA 2 with C28G, C29U, U52A, A53C, A54U
B9: target 2 MT 5'PFS GUU 3'PFS UCC (mixed)
RNA 1: B1 RNA 1
RNA 2: B1 RNA 2 with C28U, C29U, A53C, A54C
B10: target 2 MT 5'PFS UAC 3'PFS ACU (mixed)
RNA 1: B1 RNA 1
RNA 2: B1 RNA 2 with G27U, C28A, U52A, A53C, A54U
B11: target 2 MT 5'PFS UGG 3'PFS CAG (mixed)
RNA 1: B1 RNA 1
RNA 2: B1 RNA 2 with G27U, C28G, C29G, U52C, A54G
B12: target 2 MT 5'PFS UCA 3'PFS AGC (mixed)
RNA 1: B1 RNA 1
RNA 2: B1 RNA 2 with G27U, C29A, U52A, A53G, A54C
B13: target 2 MT 5'PFS UCA 3'PFS AGA (mixed)
RNA 1: B1 RNA 1
RNA 2: B1 RNA 2 with G27U, C29A, U52A, A53G
B14: target 2 MT 5'PFS CUU 3'PFS UUG (mixed)
RNA 1: B1 RNA 1
RNA 2: B1 RNA 2 with G27C, C28U, C29U, A53U, A54G
B15: target 2 MT 5'PFS AAU 3'PFS UAU (mixed)
RNA 1: B1 RNA 1
RNA 2: B1 RNA 2 with G27A, C28A, C29U, A54U
B16: target 2 MT 5'PFS GUU 3'PFS UCU (mixed)
RNA 1: B1 RNA 1
RNA 2: B1 RNA 2 with C28U, C29U, A53C, A54U
B17: target 2 MT 5'PFS GGU 3'PFS ACG (mixed)
RNA 1: B1 RNA 1
RNA 2: B1 RNA 2 with C28G, C29U, U52A, A53C, A54G
B18: target 2 MT 5'PFS AUA 3'PFS AUU (mixed)
RNA 1: B1 RNA 1
RNA 2: B1 RNA 2 with G27A, C28U, C29A, U52A, A53U, A54U
B19: target 2 MT 5'PFS AUA 3'PFS AUC (mixed)
RNA 1: B1 RNA 1
RNA 2: B1 RNA 2 with G27A, C28U, C29A, U52A, A53U, A54C
B20: target 2 MT 5'PFS UCA 3'PFS AGG (mixed)
RNA 1: B1 RNA 1
RNA 2: B1 RNA 2 with G27U, C29A, U52A, A53G, A54G
B21: target 2 MT 5'PFS UUU 3'PFS UGU (mixed)
RNA 1: B1 RNA 1
RNA 2: B1 RNA 2 with G27U, C28U, C29U, A53G, A54U
B22: target 2 MT 5'PFS ACA 3'PFS AUU (mixed)
RNA 1: B1 RNA 1
RNA 2: B1 RNA 2 with G27A, C29A, U52A, A53U, A54U
B23: target 2 MT 5'PFS CUU 3'PFS UUC (mixed)
RNA 1: B1 RNA 1
RNA 2: B1 RNA 2 with G27C, C28U, C29U, A53U, A54C
B24: target 2 MT 5'PFS GCC 3'PFS UAG (mixed)
RNA 1: B1 RNA 1
RNA 2: B1 RNA 2 with A54G
B25: target 2 MT 5'PFS GGA 3'PFS UGC (mixed)
RNA 1: B1 RNA 1
RNA 2: B1 RNA 2 with C28G, C29A, A53G, A54C
B26: target 2 MT 5'PFS GAC 3'PFS AAA (mixed)
RNA 1: B1 RNA 1
RNA 2: B1 RNA 2 with C28A, U52A
B27: target 2 MT 5'PFS AGG 3'PFS CAG (mixed)
RNA 1: B1 RNA 1
RNA 2: B1 RNA 2 with G27A, C28G, C29G, U52C, A54G
B28: target 2 MT 5'PFS GCC 3'PFS UAC (mixed)
RNA 1: B1 RNA 1
RNA 2: B1 RNA 2 with A54C
B29: target 2 MT 5'PFS GAC 3'PFS AAU (mixed)
RNA 1: B1 RNA 1
RNA 2: B1 RNA 2 with C28A, U52A, A54U
B30: target 2 MT 5'PFS GAC 3'PFS AAC (mixed)
RNA 1: B1 RNA 1
RNA 2: B1 RNA 2 with C28A, U52A, A54C
B31: target 2 MT 5'PFS GUU 3'PFS UCA (mixed)
RNA 1: B1 RNA 1
RNA 2: B1 RNA 2 with C28U, C29U, A53C
B32: target 2 MT 5'PFS AUA 3'PFS AUG (mixed)
RNA 1: B1 RNA 1
RNA 2: B1 RNA 2 with G27A, C28U, C29A, U52A, A53U, A54G
B33: target 2 MT 5'PFS AAA 3'PFS CAC (mixed)
RNA 1: B1 RNA 1
RNA 2: B1 RNA 2 with G27A, C28A, C29A, U52C, A54C
B34: target 2 MT 5'PFS AUA 3'PFS AUA (mixed)
RNA 1: B1 RNA 1
RNA 2: B1 RNA 2 with G27A, C28U, C29A, U52A, A53U
B35: target 2 MT 5'PFS CUU 3'PFS UUA (mixed)
RNA 1: B1 RNA 1
RNA 2: B1 RNA 2 with G27C, C28U, C29U, A53U
B36: target 1 insU 3' of 20,insG 3' of 9 (mixed)
RNA 1: CACCCGUGCAAAAAUGCAGGGGUCUAAAACUGAGCGGAUAACCUCUCUAUGG
RNA 2: GGGAAUGGAUCCACAUCUACGAAUUCGUACCAUUAGAGAGGUUAGUCCGCUCACCGAGAUCGGAAGAGCACACGU
B37: target 1 insA 3' of 7,insG 3' of 2 (mixed)
RNA 1: B36 RNA 1
RNA 2: GGGAAUGGAUCCACAUCUACGAAUUCGUACCAUAGAGAGGUUAUCACGCUCGACCGAGAUCGGAAGAGCACACGU
B38: target 1 insU 3' of 12,insG 3' of 1 (mixed)
RNA 1: B36 RNA 1
RNA 2: B37 RNA 2 with A43U, U44A, C45U, A46C, G52A, A53G

Molecular target: T1, EsCas13d, nuclease-dead
Experiment: crRNA (strand 1, pre-loaded); Mg2+; 40 mM Tris-HCl pH 7.5, 150 mM NaCl, 6 mM MgCl2, 1 mM DTT, 0.1% Tween-20, 0.2 mg/ml BSA; 25 C; 10 min per concentration, then washed
Settings: tags: His6-TwinStrep-SUMO cleaved; N-terminal SNAP kept (SNAP-Surface 488); label: 3' end held by stalled T7 RNA polymerase

Binder | Kd
B1 | 10.9 ± 2.7 nM
B2 | 8 ± 0.8 nM
B3 | 13.4 ± 1.7 nM
B4 | 3.8 ± 0.6 nM
B5 | 21 ± 4 nM
B6 | 9.2 ± 2.1 nM
B7 | 5.2 ± 0.4 nM
B8 | 17.8 ± 1.7 nM
B9 | 36 ± 5 nM
B10 | 9 ± 2.5 nM
B11 | 6.2 ± 0.8 nM
B12 | 2.68 ± 0.29 nM
B13 | 7.6 ± 1.8 nM
B14 | 6 ± 0.7 nM
B15 | 4.9 ± 0.9 nM
B16 | 23.9 ± 3.1 nM
B17 | 18.2 ± 1.8 nM
B18 | 5.8 ± 0.8 nM
B19 | 6.1 ± 0.7 nM

Binder | Kd
B20 | 3.3 ± 0.7 nM
B21 | 16 ± 1.8 nM
B22 | 5.5 ± 0.8 nM
B23 | 9.2 ± 2 nM
B24 | 12 ± 3.4 nM
B25 | 10.5 ± 0.9 nM
B26 | 9.5 ± 1.9 nM
B27 | 4.8 ± 0.5 nM
B28 | 20 ± 7 nM
B29 | 10.7 ± 2.4 nM
B30 | 11.4 ± 2.3 nM
B31 | 29 ± 8 nM
B32 | 5.6 ± 0.5 nM
B33 | 5.4 ± 1.2 nM
B34 | 5.2 ± 0.6 nM
B35 | 5 ± 0.5 nM
B36 | 29 ± 4 nM
B37 | 7.4 ± 0.7 nM
B38 | 7.3 ± 0.7 nM
